The test system of data set [1] is Human peripheral neutrophils. The data set is described as follows: Spontaneous oxidative activation of neutrophils (DCFH-DA oxidation). Type of data set: cell-based. An excerpt: (§1) Human peripheral neutrophils were isolated from heparinized blood donated by healthy volunteers according to a protocol approved by the University of Illinois Institutional Review Board. The cells were isolated using a Histopaque™ gradient (Sigma) according to the manufacturer's instructions. Cell viability and identity was confirmed by trypan blue staining. Live cells and neutrophils represented at least 95% of isolated leukocytes.
(§2) The method for the measurement of oxidative activation of neutrophils was based on the ROS-dependent oxidation of DCFH-DA to DCF and was adapted from Ciapetti et al. DCFH-DA crosses the cell membrane and is hydrolyzed by nonspecific esterases to nonfluorescent DCFH. Its oxidation by ROS results in the generation of highly fluorescent DCF [30]. DCFH-DA is therefore a widely accepted probe for the measurement of an overall index of oxidative activity. DCFH-DA was purchased from Calbiochem (Madison, Wis.). The assays were run in clear bottom black 96-well plate. “Edge effects” (a higher fluorescence in edge wells) were avoided by using only center wells. Briefly, 50 μl of Dulbecco's Phosphate Buffered Saline (DPBS) containing DCFH-DA was added to each well with the final concentration of […]. S100 proteins or PKC inhibitors were diluted in the wells. Just before a baseline reading 100,000 neutrophils in 50 μl PBS were placed in each well. 96-well plates were incubated at 37° C. and 5% CO2 and were read at baseline (immediately after cell addition to the plates) and at indicated time points in a Spectra Max Gemini XS fluorescent plate reader. The excitation wavelength was 485 and the reading was done at 530 nm. Wells with no DCFH-DA were used to measure background fluorescence which was subtracted from each reading. Controls with no cells were also analyzed and display no increased fluorescence over time. All assays were conducted in triplicate or quadruplicate wells.
In order to avoid differences between donors, experimental procedures and plate to plate variation, all experimental conditions and statistical analysis were run within one plate inclusive of all positive and negative controls. Single sample t-tests were calculated to test the S100A8, S100A9 and combined proteins in comparison to the control wells with alpha set to ≦0.05 to determine statistical significance. Comparisons between the S100A8, S100A9 and combined proteins were calculated with two sample t-tests using SPSS (SPSS Inc., Chicago, Ill.) with alpha set to ≦0.05 to determine statistical relevance.

The test system of data set [2] is Human peripheral neutrophils. Description: PAR-4 activating peptide enhanced neutrophil oxidative metabolism (DCFH-DA oxidation). The class given is cell-based. Conditions: P4pal-i1 with PAR-4 activating peptide (FIG. 6A).
Text: as §1
The method for the measurement of oxidative activation of neutrophils was based on the ROS-dependent oxidation of DCFH-DA to DCF and was adapted from Ciapetti et al. DCFH-DA crosses the cell membrane and is hydrolyzed by nonspecific esterases to nonfluorescent DCFH. […] “Edge effects” (a higher fluorescence in edge wells) were avoided by using only center wells. […] Just before a baseline reading 100,000 neutrophils in 50 μl PBS were placed in each well. 96-well plates were incubated at 37° C. and 5% CO2 and were read at baseline (immediately after cell addition to the plates) and at indicated time points in a Spectra Max Gemini XS fluorescent plate reader. The excitation wavelength was 485 and the reading was done at 530 nm. Wells with no DCFH-DA were used to measure background fluorescence which was subtracted from each reading. Controls with no cells were also analyzed and display no increased fluorescence over time. […]

Data set [3] deals with T1, PAR-4 (Homo sapiens, UniProt Q96RI0).
T1 construct: host or cells: Chem-1 cells
T1 sequence (Q96RI0 18-385): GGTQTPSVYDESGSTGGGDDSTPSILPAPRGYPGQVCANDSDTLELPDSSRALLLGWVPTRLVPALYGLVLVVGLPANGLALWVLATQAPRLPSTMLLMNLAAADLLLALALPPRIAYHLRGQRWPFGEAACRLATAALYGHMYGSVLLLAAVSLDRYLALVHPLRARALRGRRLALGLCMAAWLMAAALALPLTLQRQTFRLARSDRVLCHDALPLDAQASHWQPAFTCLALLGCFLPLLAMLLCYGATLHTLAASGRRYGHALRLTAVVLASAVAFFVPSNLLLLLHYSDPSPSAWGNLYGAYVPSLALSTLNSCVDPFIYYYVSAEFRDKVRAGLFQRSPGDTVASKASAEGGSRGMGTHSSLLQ
Description: Calcium flux and desensitization to thrombin in PAR-4 expressing Chem.-1 cells. Type of data set: cell-based. On the procedure: (§3) Screening for S100A8 and S100A9 activity on thrombin receptors including thrombin receptor desensitization were conducted with calcium flux assays in Chem 3 and PAR-4 expressing Chem.-1 cells by Millipore's GPCRProfiler(R) Service (Millipore, St. Charles, Mo.; see website Millipore website on the internet).

Data set [4] deals with Human peripheral neutrophils. The data set is described as follows: PMA induced activation of neutrophil oxidative metabolism (DCFH-DA oxidation). Type of data set: cell-based. Conditions: dose dependent.
Text: as §1, §2

For data set [5], the system named is neutrophils. Conditions: cited from earlier work.
For data set [6], the system named is excisional cutaneous wounds. The data set is described as follows: Wound closure in the SKH-1 restraint stress model. Type of data set: in vivo, SKH-1 mice. From the text:
This protocol was approved by the Committee on Animal Research at the University of Illinois at Chicago. Virus antibody-free, female SKH-1 mice, 5-6 weeks of age, were purchased from Charles River, Inc (Wilmington, Mass.). The animals were allowed to acclimate to the animal facility for at least one week prior to experimental procedures.
(§4) The restraint stress protocol is based on established procedures (Gajendrareddy et al., 2005; Mercado et al., 2002; Padgett et al., 1998). Restraint was initiated 3 days before wounding. Restraint stress (RST) in this model consists of confinement of mice within loosely fitting, well-ventilated 50 ml conical tubes for a period of 12-14 hours during their active nocturnal cycle. Animals were subjected to restraint for an additional five cycles on the day of wounding and for four days thereafter, then stress was discontinued.
For excisional wounds, mice were anesthetized with a single 0.25 ml intraperitoneal injection of Ketaset solution (Aveco, Fort Dodge, Iowa) at a concentration of 7.8 mg/ml, plus Rompum (Haver-Lockhart, Shawnee, Kans.) at 0.44 mg/ml. Each animal received two standardized circular cutaneous wounds with 3.5 mm punch (Miltex Instrument Company), placed just behind the shoulder blades with a biopsy punch.
(§5) For treatment of wounds, S100A8 and mutant ala^42S100A8 were produced, cleaved and purified from a GST fusion construct as previously described (Tugizov et al., 2005) (Sroussi et al., 2006). The endotoxin levels in the recombinant protein preparations were below 1 ng/μg of proteins as measured by the Limulus amoebocyte lysate assay (LAL) (Associates of Cape Cod, Falmouth, Mass.). Solutions of S100 proteins at a concentration of 1 μg/ml were used for those experiments. Introduction of S100A8 protein or control saline vehicle were conducted through local injection intradermally of 25 μl solution in the tissue surrounding the wounds with the help of Micro-Fine IV syringes 28G1/2 (Becton Dickinson, Franklin Lakes, N.J.). Careful wound manipulation ensured no direct disruption of the wound site. An additional 10 μl solution was applied directly to the wounds.
Measurement of Wound Sizes was done as follows. Beginning on the day of wounding (day 0), each animal's wounds were photographed daily until day 5 post-wounding. Photographs of the wound were obtained with a standard-sized dot placed next to the site. Digitized photographs were analyzed using photoplanimetry (Marucha et al., 1998). An investigator blinded to treatment group and day of photograph measured wound size. Wound size was expressed as the percentage of the wound area determined on every post-wounding day, compared with the original wound area.

In data set [7] the test system is Human peripheral neutrophils. The data set is described as follows: LPS stimulated neutrophil oxidative metabolism (DCFH-DA oxidation). The class given is cell-based. The conditions noted are these: 2.5 to 10 μg/ml of protein; LPS 10 μg/ml.
Text: as §1, §2

The test system of data set [8] is thrombin receptors. Description: Calcium flux and thrombin-S100A8/A9 cross-desensitization in Chem-3 cells. Conditions: each alone. The class given is cell-based. On the procedure: as §3
Data set [9] has as its system recruitment of neutrophils. Conditions: rat air-pouch; Sroussi et al., 2006; cited from earlier work.
For data set [10], the system named is wound bacterial load. The class given is in vivo, SKH-1 mice. On the procedure:
as §4, §5
Wound biopsies were performed to evaluate bacterial clearance. Mice were anesthetized as described above. The dorsal area was cleaned with Betadine and a uniform, full-thickness wound located on the dorsum just below the shoulder blades was created with a sterile 6.0-mm punch (Miltex Instrument Company).
Wound infection was assessed with measurement of bacterial load at the wound site by methods adapted from Rojas (Rojas et al., 2002). At day 1 and day 5 post-wounding, mice were euthanized; wounds were collected with a 6-mm punch (see above) and homogenized in 1 ml of sterile PBS. Homogenates were serially diluted (1:10); plated in duplicate on BHI agar, and incubated for 15 h. Bacterial colonies were counted.

[11] abbreviates: restraint stressed (RST) mice, single local treatment immediately after wounding.

No end group written: not given here. *: point of attachment. Palmitoyl = CCCCCCCCCCCCCCCC(=O)*

As for “C15H31CONH-ATGAPRLPST (Palmitoyl-ATGAPRLPST) [P4pal-i1, reference compound]”, the “spontaneous oxidative metabolic activity” value in [1] (2.5 μM P4pal-i1) is recorded as “spontaneous oxidative metabolic activity was reduced”. Moreover, the “effect on S100A8, S100A9 and calprotectin inhibition of spontaneous oxidative metabolic activity” value in [1] (P4pal-i1 with S100 proteins (FIG. 6B)) was “blocked the ability of S100A8, S100A9 and calprotectin (S100A8/A9 in combination) to inhibit the spontaneous oxidative metabolic activity of neutrophils”. Moreover, the “PAR-4 activating peptide enhancement of oxidative metabolism” value in data set [2] is recorded as “blocked the ability of the PAR-4 activating peptide to enhance oxidative metabolism”.
Take “S100A8: recombinant human S100A8 calcium binding protein, expressed in Escherichia coli as GST fusion, GST tag cleaved”: the “rate of spontaneous oxidation of the DCFH-DA probe” value in data set [1] (2.5 to 10 μg/ml of protein, followed over time, p <0.001 to <0.05) was “reduced the rate at which spontaneous oxidation of the DCFH-DA probe occurred in a dose dependent manner”. In addition, the “oxidative activation of neutrophils” value in data set [1] (5, 2.5 and 1.25 μg/ml, p<0.05) is listed as “inhibited the oxidative activation of neutrophils”. Also, the “oxidative metabolism (fluorescence emission of DCFH-DA probe)” value in data set [1] (1 h time point, all concentrations tested, P<0.05 compared to control) was “significantly inhibited oxidative metabolism at all concentrations tested”. Also, the “oxidative activation of neutrophils, protein first boiled” value in data set [1] (same concentrations (5, 2.5, 1.25 μg/ml), protein boiled for 5 minutes) is recorded as “did not significantly affect the neutrophils”. The “calcium flux in PAR-4 expressing cells” value in data set [3] (data not shown) is “activated calcium flux in those cells”. The “desensitization of PAR-4 expressing cells to thrombin activation” value in data set [3] (previous treatment with different concentrations, then 10 nM thrombin) is “dose dependently desensitized PAR-4 expressing cells to thrombin activation”. In data set [4], the “PMA activation of neutrophils” value is reported as “produced a dose dependent inhibition of PMA activation of neutrophils”. Moreover, the “neutrophil chemotaxis toward bacterial products (formylated peptides)” value in [5] (in-vitro, Sroussi et al., 2006, 2007) is “inhibit neutrophil chemotaxis toward bacterial products”. The “wound closure rate in stressed animals” value in data set [6] (setting [11]) is “partial acceleration in wound closure rate in stressed animals”. The “LPS stimulation of neutrophil oxidative activity” value in data set [7] is listed as “strongly inhibited LPS stimulation of neutrophil oxidative activity”. Moreover, in [8], the “calcium flux in Chem-3 cells” value is “trigger calcium flux in Chem-3 cells in a dose dependent manner”.

B1: ala^42S100A8: oxidation-resistant analog of S100A8 engineered using site-directed mutagenesis (cysteine 42 replaced with alanine) (protein, UniProt P05109 1-93, looked up, variant C42A)
Protein S100-A8: MLTELEKALNSIIDVYHKYSLIKGNFHAVYRDDLKKLLETEAPQYIRKKGADVWFKELDINTDGAVNFQEFLILVIKMGVAAHKKSHEESHKE
As to B1, the “recruitment of neutrophils stimulated by bacterial endotoxins” value in data set [9] is given as “inhibits the recruitment of neutrophils stimulated by bacterial endotoxins”. Also, the “chemo-repulsive activity under oxidative conditions” value in [5] (conditions that inhibit wild type S100A8) is recorded as “retains its chemo-repulsive activity under oxidative conditions”. For the same molecule, the “wound closure in non-stressed animals with daily treatment” value in data set [6] (FWD mice, daily treatment, vs daily saline) is listed as “significant delay in wound closure starting at day 4 post-wounding”. For the same molecule, the “wound closure rates in non-stressed control animals” value in data set [6] (FWD mice, single application) was “normal wound closure rates”. Besides, the “wound closure rates with daily injections” value in [6] (daily administration to the wounds) is given as “did not result in the amelioration of wound closure rates”. The “wound closure rate in stressed animals” value in data set [6] (setting [11]) was “closure rate similar to the closure rates observed in the non stressed food and water deprived (FWD) group”. Also, the “average wound size in stressed animals vs saline” value in data set [6] (restraint stressed (RST) mice, single local treatment immediately after wounding, from day 2 on) is “significantly smaller than the average wound size in stressed animals treated with saline”. For the same molecule, the “wound bacterial loads, stressed mice, day 1” value in data set [10] (RST mice, day 1, vs saline treated stressed mice) was “statistically significant reduction in bacterial loads”. Besides, in [10] (RST mice, day 5, vs saline treated stressed mice), the “wound bacterial loads, stressed mice, day 5” value was “statistically significant reduction in bacterial loads”. In [10] (mouse, in vivo), the “wound bacterial counts, FWD mice, day 1” value was “statistically significant increase in wound bacterial counts” and the “wound bacterial counts, FWD mice, day 5” value is on record as “bacterial counts had reverted to control values”.
